Results reported in FireProtDB (doi:10.1038/75151).

Details: Bacillus caldolyticus, pH 7, Thermal, CD, Sodium cacodylate-HCl 0.1 M, reversible: yes, whole UniProt chain shown

B1: Cold shock protein CspB wild type, P41016 (protein)
chain: MQRGKVKWFNNEKGYGFIEVEGGSDVFVHFTAIQGEGFKTLEEGQEVSFEIVQGNRGPQAANVVKL
In the case of B1, the unfolding free energy (70 °C, NaCl 2 M) is reported as 2.2 kcal/mol, the Tm is reported as 76.9 °C and the “unfolding enthalpy (van 't Hoff)” value is reported as 58.6 kcal/mol.
